Molecular target: T1, HB5 (HOMEOBOX PROTEIN 5, class I HD-ZIP) (Arabidopsis thaliana, UniProt P46667 1-312)
T1 sequence: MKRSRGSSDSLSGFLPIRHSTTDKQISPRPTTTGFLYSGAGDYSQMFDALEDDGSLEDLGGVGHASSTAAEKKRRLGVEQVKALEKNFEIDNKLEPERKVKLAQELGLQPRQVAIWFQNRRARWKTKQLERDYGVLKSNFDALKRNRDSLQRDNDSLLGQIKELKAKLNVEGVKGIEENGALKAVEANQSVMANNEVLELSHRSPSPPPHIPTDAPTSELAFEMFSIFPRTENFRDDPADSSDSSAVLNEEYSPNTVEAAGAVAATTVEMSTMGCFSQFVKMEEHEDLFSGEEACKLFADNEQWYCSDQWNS
Assay: EMSA

B1: PF 36bp (dsDNA)
DNA 1: GGCCCGCCATTACAAGACATATGGGTCCCAATTCTCATCACGGGCC
DNA 2: GGCCCGTGATGAGAATTGGGACCCATATGTCTTGTAATGGCGGGCC
  binding result: binds
